The record followed here is article PMC5612097, “Discovery of a microbial transglutaminase enabling highly site-specific labeling of proteins” (The Journal of Biological Chemistry, 2017).

One assay deals with T1, KalbTG (Kutzneria viridogrisea, UniProt W5WHY8).
T1 construct: gene KALB_7456; E. coli; predicted signal peptide removed; N-terminal 2x SlyD (E. coli) chaperone tag with factor Xa site (cut off for some applications), N-terminal MGGGSTTAQAAAVAAPTPR, C-terminal GGGS-His8
Briefly: peptide array transamidation, Cy5-streptavidin fluorescence. The assay is classed as biochemical. The conditions noted are these: 50 uM amine donor with 5-mer Gln peptides; 100 mM Tris-HCl, pH 8, 1 mM DTT, 37 °C, 45 min.

In assay [1] the target is microbial transglutaminase from Kutzneria albida (KalbTG) (Kutzneria albida DSM 43870).
The target of assay [2] is microbial transglutaminase (MTG) from Streptomyces mobaraensis, engineered enzyme from Zedira (Streptomyces mobaraensis) (UniProt P81453).

Where no end group is shown, it is not given here. The star is where a group is joined. Cbz = O=C(OCc1ccccc1)*

T1 sequence (W5WHY8 entry or part of it): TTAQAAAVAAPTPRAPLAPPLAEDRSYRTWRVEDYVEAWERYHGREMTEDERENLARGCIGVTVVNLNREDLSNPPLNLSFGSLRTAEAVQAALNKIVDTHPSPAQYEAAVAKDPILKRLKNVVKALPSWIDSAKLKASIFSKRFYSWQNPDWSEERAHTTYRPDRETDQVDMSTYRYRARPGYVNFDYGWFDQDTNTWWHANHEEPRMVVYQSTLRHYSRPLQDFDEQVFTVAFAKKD

With `NCCCCCNC(=O)CCCC[C@@H]1SC[C@@H]2NC(=O)N[C@@H]21` [N-(biotinyl)cadaverine], the “peptide array transamidation, Cy5-streptavidin fluorescence” value at KalbTG is recorded as “N-(biotinyl)cadaverine (Zedira) was used as a substitute for a Lys substrate to biotinylate Gln peptides”.

On to Cbz-GGGYRYRQGGGG, for which the Km in the GLDH-coupled transglutaminase activity assay (37 °C, peptide 0-1 mM, 1 mM cadaverine as amine donor) was determined as 2150 µM in assay [1] and 644 µM in assay [2].

Consider Cbz-GGGDYALQGGGG, for which, in assay [2], the Km in the GLDH-coupled transglutaminase activity assay (37 °C, peptide 0-1 mM, 1 mM cadaverine as amine donor) was found to be 847 µM.
